The values that follow come from US20230312654A1.

In experiment [1] the target is UFV180846 (influenza B virus B/Brisbane/60/08) (UniProt P22092).
For experiment [2], the target named is UFV180251 (influenza B virus B/Brisbane/60/08) (UniProt P22092).
The target of experiment [3] is UFV180137 (influenza B virus B/Brisbane/60/08) (UniProt P22092).
In experiment [4] the target is UFV180284 (influenza B virus B/Brisbane/60/08) (UniProt P22092).
Experiment [5] deals with UFV180131 (influenza B virus B/Brisbane/60/08) (UniProt P22092).

In general, EC50 refers to the concentration at which the effect is half-maximal. A higher EC50 goes with a need for much substance. On to monoclonal antibody CR8071, for which the EC50 in experiment [1] was under 4.6 nM.

On to monoclonal antibody CR9114, for which the EC50 in experiment [2] is under 2.6 nM; in experiment [3], under 2.6 nM; in experiment [1], under 4.6 nM; in experiment [4] it was under 2.6 nM; in experiment [5] it was under 2.6 nM.
